The record followed here is paper PMC2674214 (PLoS ONE, 2009).

In assay [1] the target is T1, hemagglutinin (HA) of A/Anhui/1/2005 (H5N1) virus (Influenza A virus A/Anhui/1/2005 (H5N1), UniProt Q1WDM0). The assay can be described thus: ELISA. Particulars: one partner purified. For orientation: ELISA stands for enzyme-linked immunosorbent assay.
Assay [2] addresses rHA of clade 0 H5N1 virus A/HongKong/156/97 (Influenza A virus A/Hong Kong/156/1997 …, UniProt O56140). The assay can be described thus: ELISA.
For assay [3], the target named is T1, hemagglutinin (HA) of A/Anhui/1/2005 …. The assay can be described thus: immunostaining of cells or tissue. Conditions: one partner purified.
The target of assay [4] is T2, rHA of AH/1/05 virus (full length HA) (Influenza A virus A/Anhui/1/2005 (H5N1), UniProt Q1WDM0).
T2 construct: source: SF-9 cells infected with recombinant baculovirus (pAcUW51), on fixed cells
The assay can be described thus: immunostaining of cells or tissue. Conditions: one partner purified.

The next assay deals with T3, rHA1 of AH/1/05 virus (Influenza A virus A/Anhui/1/2005 (H5N1), UniProt Q1WDM0, strain).
T3 construct: source: SF-9 cells infected with recombinant baculovirus (pAcUW51), on fixed cells
The assay can be described thus: immunostaining of cells or tissue. Conditions: one partner purified.

For another assay, the target named is T4, rHA2 of AH/1/05 virus (Influenza A virus A/Anhui/1/2005 (H5N1), UniProt Q1WDM0, strain).
T4 construct: source: SF-9 cells infected with recombinant baculovirus (pAcUW51), on fixed cells
The assay can be described thus: immunostaining of cells or tissue. Particulars: one partner purified.

B1: AVFluFab03 (Fab, V domains shown)
VH: LESGGGLVQPGGSLRVSCTNSGFTFSDYAMSWVRQAPGKGLEWVSAISGNGGSSTYYADSVKGRFTISRDNSKNTMYLQMNSLRAEDTAVYYCVRDDSYDGGGQYGLHNWFDSWGQGTLVTV
VL: ELTQPPSVSGAPGQRVTISCTGSSSNIGAGYDVHWYQQLPGTAPKLLIYGNSNRPSGVPDRFSGSKSGTSASLAITGLQAEDEADYYCQSYDSSLVVFGGGTKLTVL
notes: also called Fab clone representing 25 of the 43 selected Fab clones; source: phagemid vector pComb3H, crude Fab antibody preparations
For B1, the binding result in assay [1] was “binds”.

B2: AVFluIgG03 (antibody, V domains shown)
VH: B1 VH
VL: B1 VL
notes: also called rhAb AVFluIgG03; AVFluIg03; source: SF9 cells, purified on a Protein A column
With B2, the binding result in assay [2] is listed as “no binding”; in assay [3], “binds”; in assay [4] it was “binds”; with rHA1 of AH/1/05 virus, “binds”; with rHA2 of AH/1/05 virus it was “no binding”.
